Results: the PETadex activity labels (doi:10.1016/j.jhazmat.2023.131574)

Tests used:
PCL; PBS; PHA; PLA; PUR = test: Proxy for plastic degradation [Weight/mass loss]; conditions: pH 7; 24 h

B1: unnamed (protein)
chain: MSNGYSACPAPYDHRGMRKHASLLAALPVLLAACGTTTSTLTTPAVTPQTLSGAATNPYERGPAPTTALLEAARGPYATASTTVPRSSVSDFGGATIYYPTSTADGTFGGVAISPGYTGTQASVAWLGPRLASHGFVVIVIDTLSRYDYPSSRGDQLRAALRYLTTSSAVRTRVDATRLAVMGHSMGGGGALEAAKDNPALKAAIPLTPWNTDKSWPELTTPTLIFGAQNDSVAPVSSHAIPFYTSLASTLPKAYLELRGASHGAPTSTNTTIAKYAVAWLKRFEDADRRYDPFLCPTPAVSTLLSDARSTCPFN
- Km (p-NP-C10; 50 °C): 930 µM
- kcat (p-NP-C10; 50 °C): 2.47 s⁻¹
- kcat/Km (p-NP-C10; 50 °C): 2660 M⁻¹ s⁻¹
- Km (p-NP-C2; 50 °C): 900 µM
- kcat (p-NP-C2; 50 °C): 27.5 s⁻¹
- kcat/Km (p-NP-C2; 50 °C): 30600 M⁻¹ s⁻¹
- Km (p-NP-C4; 50 °C): 190 µM
- kcat (p-NP-C4; 50 °C): 30.8 s⁻¹
- kcat/Km (p-NP-C4; 50 °C): 162000 M⁻¹ s⁻¹
- Km (p-NP-C8; 50 °C): 1290 µM
- kcat (p-NP-C8; 50 °C): 11.3 s⁻¹
- kcat/Km (p-NP-C8; 50 °C): 8780 M⁻¹ s⁻¹

B2: unnamed (protein)
chain: MSNGYSACPAPYDHRGMRKHASLLAALPVLLAACGTTTSTLTTPAVTPQTLSGAATNPYERGPAPTTALLEAARGPYATASTTVPRSSVSDFGGATIYYPTSTADGTFGGVAISPGYTGTQASVAWLGPRLASHGFVVIVIDTLSRYDYPSSRGDQLRAALRYLTTSSAVRTRVDATRLAVMGHSMGGGGALEAAKDNPALKAAIPLTPWNTDKSWPELTTPTLIFGAQNDSVAPVSSHAIPFYTSLASTLPKAYLELRGASHGAPTSTNTTIAKYAVAWLKRFDADARRYDPFLCPTPAVSTLLSDARSTCPFN
- Proxy for plastic degradation (PCL; PBS; PHA; PLA; PUR): 79%

B3: unnamed (protein)
chain: MDGVLWRVRTAALMAALLALAAWALVWASPSVEAQSNPYQRGPNPTRSALTADGPFSVATYTVSRLSVSGFGGGVIYYPTGTSLTFGGIAMSPGYTADASSLAWLGRRLASHGFVVLVINTNSRFDGPDSRASQLSAALNYLRTSSPSAVRARLDANRLAVAGHSMGGGGTLRIAEQNPSLKAAVPLTPWHTDKTFNTSVPVLIVGAEADTVAPVSQHAIPFYQNLPSTTPKVYVELCNASHIAPNSNNAAISVYTISWMKLWVDNDTRYRQFLCNVNDPALCDFRTNNRHCQ
- Km (p-NP-C10; 60 °C): 2680 µM
- kcat (p-NP-C10; 60 °C): 8.11 s⁻¹
- kcat/Km (p-NP-C10; 60 °C): 3030 M⁻¹ s⁻¹
- Km (p-NP-C2; 60 °C): 7310 µM
- kcat (p-NP-C2; 60 °C): 159 s⁻¹
- kcat/Km (p-NP-C2; 60 °C): 21800 M⁻¹ s⁻¹
- Km (p-NP-C4; 60 °C): 760 µM
- kcat (p-NP-C4; 60 °C): 137 s⁻¹
- kcat/Km (p-NP-C4; 60 °C): 180000 M⁻¹ s⁻¹
- Km (p-NP-C8; 60 °C): 7440 µM
- kcat (p-NP-C8; 60 °C): 107 s⁻¹
- kcat/Km (p-NP-C8; 60 °C): 14300 M⁻¹ s⁻¹
